The record followed here is publication PMC2918618, “Characterization of the TnsD-attTn7 complex that promotes site-specific insertion of Tn7” (Mobile DNA, 2010).

Holding throughout (experiment): EMSA; Gel-shift buffer not given (as described in ref. 6); TnsD stored in 500 mM KCl, 50 mM Tris-HCl pH 8.0, 1 mM EDTA, 2 mM DTT, 25% glycerol
For orientation: Mobility shift assays separate free from complexed probe on a gel.

For data set [1], the target named is T1, TnsD C124S (Escherichia coli (transposon Tn7), UniProt P13991 1-508, C124S).
T1 sequence: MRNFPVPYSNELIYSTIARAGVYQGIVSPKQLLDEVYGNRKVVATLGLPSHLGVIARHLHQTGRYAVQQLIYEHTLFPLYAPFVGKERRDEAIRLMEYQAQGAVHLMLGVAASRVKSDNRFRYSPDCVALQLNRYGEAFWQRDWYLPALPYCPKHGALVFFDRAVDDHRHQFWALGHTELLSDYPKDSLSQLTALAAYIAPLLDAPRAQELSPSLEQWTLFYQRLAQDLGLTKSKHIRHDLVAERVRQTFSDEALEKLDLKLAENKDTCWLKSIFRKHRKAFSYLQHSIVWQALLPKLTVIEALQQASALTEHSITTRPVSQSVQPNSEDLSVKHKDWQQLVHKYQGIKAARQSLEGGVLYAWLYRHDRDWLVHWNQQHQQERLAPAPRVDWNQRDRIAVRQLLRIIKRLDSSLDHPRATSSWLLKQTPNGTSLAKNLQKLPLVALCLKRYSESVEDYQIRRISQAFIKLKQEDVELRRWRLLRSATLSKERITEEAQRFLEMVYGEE
As to conditions: protein: recombinant; tags: intein-chitin tag, cleaved with DTT.

Data set [2] has as its target T2, TnsD 1-399 (Escherichia coli (transposon Tn7), UniProt P13991 1-399).
T2 sequence: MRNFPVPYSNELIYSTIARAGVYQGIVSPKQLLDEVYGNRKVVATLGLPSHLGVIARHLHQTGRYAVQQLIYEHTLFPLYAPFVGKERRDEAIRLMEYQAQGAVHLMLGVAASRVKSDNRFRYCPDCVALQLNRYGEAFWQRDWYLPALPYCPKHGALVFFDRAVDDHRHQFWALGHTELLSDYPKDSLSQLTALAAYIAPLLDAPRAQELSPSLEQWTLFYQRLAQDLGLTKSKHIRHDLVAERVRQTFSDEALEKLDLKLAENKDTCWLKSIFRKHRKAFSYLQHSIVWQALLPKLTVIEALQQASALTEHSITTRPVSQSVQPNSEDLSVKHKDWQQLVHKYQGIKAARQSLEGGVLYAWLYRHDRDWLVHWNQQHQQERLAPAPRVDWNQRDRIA
As to conditions: protein: recombinant.

The target of data set [3] is T3, TnsD 1-350 (Escherichia coli (transposon Tn7), UniProt P13991 1-350).
T3 sequence: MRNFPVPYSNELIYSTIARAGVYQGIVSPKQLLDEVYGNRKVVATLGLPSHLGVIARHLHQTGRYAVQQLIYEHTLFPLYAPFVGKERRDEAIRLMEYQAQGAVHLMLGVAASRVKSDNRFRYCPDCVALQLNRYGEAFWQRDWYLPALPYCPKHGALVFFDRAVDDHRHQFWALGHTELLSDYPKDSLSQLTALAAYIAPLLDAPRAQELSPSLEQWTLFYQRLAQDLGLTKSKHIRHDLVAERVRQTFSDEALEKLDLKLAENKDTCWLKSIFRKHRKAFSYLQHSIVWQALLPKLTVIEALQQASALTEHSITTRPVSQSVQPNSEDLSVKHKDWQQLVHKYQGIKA
The note with it: protein: recombinant.

The target of data set [4] is T4, TnsD 1-480 (Escherichia coli (transposon Tn7), UniProt P13991 1-480).
T4 sequence: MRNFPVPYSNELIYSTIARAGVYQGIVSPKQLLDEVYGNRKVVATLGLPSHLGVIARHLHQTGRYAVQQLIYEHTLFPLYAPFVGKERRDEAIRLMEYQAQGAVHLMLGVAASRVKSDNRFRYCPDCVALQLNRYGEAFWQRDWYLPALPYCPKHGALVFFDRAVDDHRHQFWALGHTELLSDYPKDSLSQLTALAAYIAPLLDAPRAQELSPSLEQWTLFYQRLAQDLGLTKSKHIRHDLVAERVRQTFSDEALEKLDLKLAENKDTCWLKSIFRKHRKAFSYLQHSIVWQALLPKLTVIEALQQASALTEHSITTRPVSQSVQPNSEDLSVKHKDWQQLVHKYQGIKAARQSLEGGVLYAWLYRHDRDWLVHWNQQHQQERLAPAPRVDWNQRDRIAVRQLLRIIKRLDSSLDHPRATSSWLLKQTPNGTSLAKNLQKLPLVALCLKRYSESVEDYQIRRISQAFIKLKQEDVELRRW
The note with it: protein: recombinant.

The target in data set [5] is T5, TnsD 1-490 (Escherichia coli (transposon Tn7), UniProt P13991 1-490).
T5 sequence: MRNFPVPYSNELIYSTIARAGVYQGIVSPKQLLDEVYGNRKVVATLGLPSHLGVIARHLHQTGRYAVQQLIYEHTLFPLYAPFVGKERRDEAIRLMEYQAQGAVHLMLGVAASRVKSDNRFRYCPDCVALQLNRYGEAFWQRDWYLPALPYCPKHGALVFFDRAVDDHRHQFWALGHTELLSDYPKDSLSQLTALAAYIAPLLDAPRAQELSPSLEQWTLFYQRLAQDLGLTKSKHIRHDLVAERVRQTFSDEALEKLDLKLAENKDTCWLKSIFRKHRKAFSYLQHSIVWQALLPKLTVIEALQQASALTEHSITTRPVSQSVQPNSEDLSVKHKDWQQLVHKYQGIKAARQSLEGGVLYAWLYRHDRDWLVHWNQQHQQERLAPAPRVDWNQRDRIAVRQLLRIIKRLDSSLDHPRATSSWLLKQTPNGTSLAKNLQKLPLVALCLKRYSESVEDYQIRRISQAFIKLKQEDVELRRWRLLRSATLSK
The note with it: protein: recombinant.

B1: attTn7 wt (+23 to +58) (dsDNA)
DNA 1: CCGCGTAACCTGGCAAAATCGGTTACGGTTGAGTAA
DNA 2: TTACTCAACCGTAACCGATTTTGCCAGGTTACGCGG
For the molecule B1, the binding signal in data set [1] was 0.05 relative to wt. The binding result in data set [2], in data set [3], in data set [4] and in data set [5] was “no binding” throughout.
